From the RNAGym collection of RNA variant scans (doi:10.7554/elife.80360)

B1: CPEB3 Ribozyme (parent)
chain: GGGGGCCACAGCAGAAGCGUUCACGUCGCGGCCCCUGUCAGAUUCUGGUGAAUCUGCGAAUUCUGCUGU

Variants of: B1
Test: self-cleavage, relative activity (ratio to wild type); higher = more cleavage; co-transcriptional

Q: For C7G C39A, which self-cleavage is on record?
A: 0.141

Q: For C7G C39U, which self-cleavage is on record?
A: 0.326

Q: With C7G C39G as the variant, how does the self-cleavage read?
A: 0.236

Q: For C7A U69G, which self-cleavage is on record?
A: 0.897

Q: Which self-cleavage does the source give for C7A U69A here?
A: 0.875

Q: For C7U C57A, which self-cleavage is on record?
A: 0.35

Q: With C7U C57U as the variant, how does the self-cleavage read?
A: 0.305

Q: For C7A U62A, which self-cleavage is on record?
A: 0.275

Q: For C7A U62C, which self-cleavage is on record?
A: 0.269

Q: With C7U G50U as the variant, how does the self-cleavage read?
A: 0.96

Q: With C7U G50C as the variant, how does the self-cleavage read?
A: 0.965

Q: Which self-cleavage does the source give for C7U A59C here?
A: 0.403

Q: Which self-cleavage does the source give for C7U A59U here?
A: 0.554

Q: Which self-cleavage does the source give for C7U A59G here?
A: 0.93

Q: With C7A U38A as the variant, how does the self-cleavage read?
A: 0.191

Q: For C7A U38C, which self-cleavage is on record?
A: 0.221

Q: With C7G G30U as the variant, how does the self-cleavage read?
A: 0.564

Q: Which self-cleavage does the source give for C7U C35U here?
A: 0.947

Q: With C7U C45U as the variant, how does the self-cleavage read?
A: 0.892

Q: With C7U C45A as the variant, how does the self-cleavage read?
A: 0.919

Q: For C7U C45G, which self-cleavage is on record?
A: 1.02

Q: For C7G U67A, which self-cleavage is on record?
A: 0.773

Q: Which self-cleavage does the source give for C7G U67C here?
A: 0.635

Q: Which self-cleavage does the source give for C7U G14A here?
A: 0.509

Q: Which self-cleavage does the source give for C7U G14U here?
A: 0.503

Q: With C7G A16C as the variant, how does the self-cleavage read?
A: 0.0882

Q: With C7G A16G as the variant, how does the self-cleavage read?
A: 0.329

Q: For C7G A16U, which self-cleavage is on record?
A: 0.0326

Q: Which self-cleavage does the source give for C7U G47C here?
A: 0.917

Q: For C7U G47A, which self-cleavage is on record?
A: 0.954

Q: Which self-cleavage does the source give for C7G C9G here?
A: 0.966

Q: With C7G C9A as the variant, how does the self-cleavage read?
A: 0.898

Q: For C7A C45G, which self-cleavage is on record?
A: 0.421

Q: With C7A G56A as the variant, how does the self-cleavage read?
A: 0.34

Q: For C7A G56C, which self-cleavage is on record?
A: 0.243

Q: Which self-cleavage does the source give for C7A G41C here?
A: 0.146

Q: For C7U G58A, which self-cleavage is on record?
A: 0.928

Q: For C7U G58C, which self-cleavage is on record?
A: 0.873

Q: With C7A C57A as the variant, how does the self-cleavage read?
A: 0.173

Q: For C7A C57U, which self-cleavage is on record?
A: 0.172

Q: For C7A C63U, which self-cleavage is on record?
A: 0.515

Q: Which self-cleavage does the source give for C7G U21C here?
A: 0.173

Q: For C7G G31U, which self-cleavage is on record?
A: 0.521

Q: With C7G G31A as the variant, how does the self-cleavage read?
A: 0.45

Q: For C7G G31C, which self-cleavage is on record?
A: 0.101

Q: With C7G G25U as the variant, how does the self-cleavage read?
A: 0.0759

Q: Which self-cleavage does the source give for C7G G25C here?
A: 0.0905

Q: With C7G G68U as the variant, how does the self-cleavage read?
A: 0.808

Q: For C7G G68A, which self-cleavage is on record?
A: 0.824

Q: Which self-cleavage does the source give for C7U U46C here?
A: 0.973

Q: Which self-cleavage does the source give for C7U U43A here?
A: 0.828

Q: With C7U U43C as the variant, how does the self-cleavage read?
A: 0.967

Q: For C7A G14C, which self-cleavage is on record?
A: 0.137

Q: For C7A G14U, which self-cleavage is on record?
A: 0.131

Q: Which self-cleavage does the source give for C7A G14A here?
A: 0.167

Q: For C7G U64A, which self-cleavage is on record?
A: 0.279

Q: With C7G U64G as the variant, how does the self-cleavage read?
A: 0.232

Q: Which self-cleavage does the source give for C7G U64C here?
A: 0.17

Q: For C7A C33G, which self-cleavage is on record?
A: 0.226

Q: With C7A C33U as the variant, how does the self-cleavage read?
A: 0.489

Q: Which self-cleavage does the source give for C7A C33A here?
A: 0.119

Q: Which self-cleavage does the source give for C7A U36G here?
A: 0.205

Q: With C7A U36C as the variant, how does the self-cleavage read?
A: 0.223

Q: Which self-cleavage does the source give for C7A G68A here?
A: 0.984

Q: Which self-cleavage does the source give for C7A G68U here?
A: 0.937

Q: With C7A U20A as the variant, how does the self-cleavage read?
A: 0.0917

Q: For C7A U20G, which self-cleavage is on record?
A: 0.127

Q: With C7A U20C as the variant, how does the self-cleavage read?
A: 0.211

Q: For C7U A13C, which self-cleavage is on record?
A: 0.871

Q: With C7U A13G as the variant, how does the self-cleavage read?
A: 0.936

Q: For C7U C33A, which self-cleavage is on record?
A: 0.656

Q: For C7U C33G, which self-cleavage is on record?
A: 0.245

Q: With C7U C33U as the variant, how does the self-cleavage read?
A: 0.939

Q: Which self-cleavage does the source give for C7G A13U here?
A: 0.122

Q: Which self-cleavage does the source give for C7G A13G here?
A: 0.238

Q: Which self-cleavage does the source give for C7U U38G here?
A: 0.193

Q: Which self-cleavage does the source give for C7U U38A here?
A: 0.774

Q: Which self-cleavage does the source give for C7U U38C here?
A: 0.819

Q: With C7U C66G as the variant, how does the self-cleavage read?
A: 0.898

Q: For C7A G19U, which self-cleavage is on record?
A: 0.163

Q: With C7A G19C as the variant, how does the self-cleavage read?
A: 0.143

Q: With C7U C9A as the variant, how does the self-cleavage read?
A: 1.05

Q: For C7U C9G, which self-cleavage is on record?
A: 1.01

Q: Which self-cleavage does the source give for C7U C9U here?
A: 1.06
